Experimental data: PMC3954793, “SHP-2 Binds to Caveolin-1 and Regulates Src Activity via Competitive Inhibition of CSK in Response to H2O2 in Astrocytes” (PLoS ONE, 2014)

How the values were obtained:
[1] = tested on: caveolin-1/SHP-2 complex; experiment: Co-immunoprecipitation of caveolin-1 and SHP-2; type: cell-based, human; conditions: HEK 293T cells transfected with WT or Y14A caveolin-1; 5 mM H2O2, 10 min
Method: (§1) cDNA encoding full-length human caveolin-1 was obtained from Thermo Scientific (Waltham, MA, USA). The Y14A caveolin-1 mutant was generated using a QuickChange site-directed mutagenesis kit (Stratagene, Santa Clara, CA, USA) using PCR. pCMV-SPORT6-caveolin-1 cDNA (25 ng) was used as a template and added to dNTP mix, Pfu buffer, Pfu turbo DNA polymerase and 125 ng of each of the mutagenic primers: sense, 5′-[…]-3′ and antisense, 5′-[…]-3′. Samples were then incubated at 95°C for 1 min, then for 20 cycles of 95°C for 1 min, 65°C for 4 min, and 68°C for 12 min. The methylated parental DNA template in the PCR product was digested using the DpnI (10 U) restriction enzyme for 3 h at 37°C. […] After mutagenesis, 1 µg of caveolin-1 wild-type (WT) or Y14A mutant DNA was transfected into HEK 293T cells using VIVAMAGIC transfection reagent (VIVAGEN, Seongnam, Korea) containing 10% FBS according to the manufacturer’s instructions for 24 h before treatment with 5 mM H2O2 for 10 min; the cells were then analyzed by immunoblotting.
(§2) Cells were plated and transfected with green fluorescence protein (GFP) siRNA (Samchully Pharm Co. Ltd., Seoul, Korea) as a control group and human CSK siRNA and human SHP-2 siRNA from Bioneer (Daejeon, Korea) using Lipofectamine RNAiMAX (Invitrogen, Carlsbad, CA, USA) according to the manufacturer’s instructions to achieve a final concentration of 300 nM. […]

[2] = tested on: caveolin-1/CSK complex; experiment: Co-immunoprecipitation of caveolin-1 and CSK; type: cell-based, human; conditions: HEK 293T cells transfected with WT or Y14A caveolin-1; 5 mM H2O2, 10 min
Method: as §1, §2

B1: WT caveolin-1: full-length human wild-type caveolin-1 expressed in transfected HEK 293T cells (protein)
chain: MSGGKYVDSEGHLYTVPIREQGNIYKPNNKAMADELSEKQVYDAHTKEIDLVNRDPKHLNDDVVKIDFEDVIAEPEGTHSFDGIWKASFTTFTVTKYWFYRLLSALFGIPMALIWGIYFAILSFLHIWAVVPCIKSFLIEIQCISRVYSIYVHTVCDPLFEAVGKIFSNVRINLQKEI
modifications: phosphotyrosine at 14 after H2O2 treatment
notes: full-length human wild-type caveolin-1 expressed in transfected HEK 293T cells
interaction of SHP-2 with transfected caveolin-1 [1]: SHP-2 interacted with WT caveolin-1, but not mutant caveolin-1, and only in the presence of H2O2 | interaction between CSK and transfected caveolin-1 [2]: An interaction between CSK and WT caveolin-1, but not Y14A mutant caveolin-1, was observed in the presence of H2O2
